The target of one experiment is HLA-B*83:01. The experiment can be described thus: IEDB peptide-MHC binding, purified MHC/competitive/fluorescence; filed as Kd, often an IC50 or EC50 that approximates it; ≥ and ≤ were set here for values at or beyond the usual limits of such assays. The following applies: source organism: human gammaherpesvirus 4.
In a further experiment the target is HLA-B*15:42. The experiment is described as above. The following applies: source organism: human gammaherpesvirus 4.
In a further experiment the target is HLA-B*40:13. Described as above. The following applies: source organism: human gammaherpesvirus 4.
In another experiment the target is HLA-B*45:06. The experiment is described as above. Particulars: source organism: human gammaherpesvirus 4.
A further experiment addresses HLA-B*27:20. Described as above. The following applies: source organism: human gammaherpesvirus 4.
A further experiment has as its target HLA-B*39:01. Described as above. The following applies: source organism: Influenza A virus (A/swine/Italy/1509-6/97(H1N1)).
The next experiment concerns the target HLA-A*26:03. The experiment is described as above. Particulars: source organism: Influenza A virus (A/swine/Italy/1509-6/97(H1N1)).
For the next experiment, the target named is HLA-A*68:02. The description is as above. Particulars: source organism: Influenza A virus (A/swine/Italy/1509-6/97(H1N1)).
The next experiment addresses HLA-B*08:01. The description is as above. Particulars: source organism: Influenza A virus (A/swine/Italy/1509-6/97(H1N1)).
In a further experiment the target is HLA-B*15:09. The experiment is described as above. Particulars: source organism: Influenza A virus (A/swine/Italy/1509-6/97(H1N1)).
In another experiment the target is HLA-A*26:02. The experiment is described as above. The following applies: source organism: Influenza A virus (A/swine/Italy/1509-6/97(H1N1)).
Another experiment addresses HLA-A*03:01. The experiment can be described thus: IEDB peptide-MHC binding, purified MHC/direct/fluorescence; filed as Kd, often an IC50 or EC50 that approximates it; ≥ and ≤ were set here for values at or beyond the usual limits of such assays. Particulars: source organism: Influenza A virus (A/New Caledonia/20/1999(H1N1)).
Another experiment deals with HLA-C*06:02. The description is as above. Particulars: source organism: Influenza A virus (A/swine/Italy/1509-6/97(H1N1)).
Another experiment concerns the target HLA-B*58:01. Described as above. Particulars: source organism: Influenza A virus (A/New Caledonia/20/1999(H1N1)).
In the next experiment the target is HLA-A*11:01. The experiment is described as above. The following applies: source organism: Influenza A virus (A/New Caledonia/20/1999(H1N1)).
For a further experiment, the target named is HLA-B*46:01. The description is as above. Particulars: source organism: Influenza A virus (A/New Caledonia/20/1999(H1N1)).
Another experiment deals with HLA-B*48:01. Described as above. Particulars: source organism: Influenza A virus (A/New Caledonia/20/1999(H1N1)).
A further experiment deals with HLA-B*57:01. The experiment is described as above. The following applies: source organism: Influenza A virus (A/New Caledonia/20/1999(H1N1)).
A further experiment deals with HLA-B*15:02. Described as above. The following applies: source organism: Influenza A virus(A/swine/Henan/8/2004(H9N2)).
A further experiment concerns the target HLA-B*27:05. The description is as above. The following applies: source organism: Influenza A virus (A/New Caledonia/20/1999(H1N1)).
For another experiment, the target named is HLA-B*07:02. The experiment is described as above. The following applies: source organism: Influenza A virus (A/New Caledonia/20/1999(H1N1)).
For another experiment, the target named is HLA-A*01:01. The description is as above. Particulars: source organism: Influenza A virus (A/New Caledonia/20/1999(H1N1)).
The next experiment has as its target HLA-A*69:01. The description is as above. Particulars: source organism: Influenza A virus (A/New Caledonia/20/1999(H1N1)).
In a further experiment the target is HLA-A*31:01. The description is as above. The following applies: source organism: Influenza A virus (A/New Caledonia/20/1999(H1N1)).
A further experiment deals with HLA-B*15:01. Described as above. The following applies: source organism: Influenza A virus (A/New Caledonia/20/1999(H1N1)).
A further experiment has as its target HLA-C*15:02. The experiment is described as above. Particulars: source organism: Influenza A virus (A/swine/Italy/1509-6/97(H1N1)).
A further experiment has as its target HLA-C*14:02. The experiment is described as above. The following applies: source organism: Influenza A virus (A/swine/Italy/1509-6/97(H1N1)).
A further experiment addresses HLA-B*08:03. The description is as above. The following applies: source organism: Influenza A virus(A/swine/Henan/8/2004(H9N2)).
The target in another experiment is HLA-B*15:17. The description is as above. Particulars: source organism: Influenza A virus (A/New Caledonia/20/1999(H1N1)).
The next experiment deals with HLA-A*02:11. The description is as above. Particulars: source organism: Influenza A virus(A/swine/Henan/8/2004(H9N2)).
The target in a further experiment is HLA-A*02:01. The description is as above. Particulars: source organism: Influenza A virus (A/New Caledonia/20/1999(H1N1)).

Broadly, the Kd is the free concentration of one partner at which half of the binding sites on the other are occupied at equilibrium, for simple one-to-one binding.

Take AQRAAGPSV: the Kd is no less than 5000 nM with HLA-B*83:01; 1190 nM in the experiment with HLA-B*15:42; 212 nM in the experiment with HLA-B*40:13; 9.2 nM in the experiment with HLA-B*45:06; 0.7 nM with HLA-B*27:20.

On to WMACHSAAF, for which the Kd with HLA-B*39:01 stood at 59.5 nM; with HLA-A*26:03, 158 nM; with HLA-A*68:02, 929 nM; in the experiment with HLA-B*08:01, 77.2 nM; with HLA-B*15:09, 600 nM; with HLA-A*26:02 it was 0.4 nM. Further, the Kd was no less than 20000 nM with HLA-A*03:01; no less than 20000 nM in the experiment with HLA-C*06:02; no less than 20000 nM in the experiment with HLA-B*58:01; no less than 20000 nM with HLA-A*11:01; 756 nM with HLA-B*46:01; 1430 nM in the experiment with HLA-B*48:01. The Kd was no less than 20000 nM with HLA-B*57:01; 5 nM with HLA-B*15:02; 6300 nM in the experiment with HLA-B*27:05; 9800 nM with HLA-B*07:02; no less than 20000 nM with HLA-A*01:01; no less than 20000 nM with HLA-A*69:01. Further, the Kd with HLA-A*31:01 was no less than 20000 nM; with HLA-B*15:01, 18 nM; in the experiment with HLA-C*15:02 it was no less than 20000 nM; with HLA-C*14:02 it was 43 nM; with HLA-B*08:03 it was 83 nM; with HLA-B*15:17, 189 nM. Besides, the Kd with HLA-A*02:11 was 60 nM; in the experiment with HLA-A*02:01, no less than 20000 nM.
